The text below walks through data of patent publication US20260258125A1 (NONA BIOSCIENCES SUZHOU, published 2026).

Assay [1] addresses T1, human CEACAM6 on 293T cells (293T-huCEACAM6 cells) (human, UniProt P40199 35-320).
T1 sequence (looked up): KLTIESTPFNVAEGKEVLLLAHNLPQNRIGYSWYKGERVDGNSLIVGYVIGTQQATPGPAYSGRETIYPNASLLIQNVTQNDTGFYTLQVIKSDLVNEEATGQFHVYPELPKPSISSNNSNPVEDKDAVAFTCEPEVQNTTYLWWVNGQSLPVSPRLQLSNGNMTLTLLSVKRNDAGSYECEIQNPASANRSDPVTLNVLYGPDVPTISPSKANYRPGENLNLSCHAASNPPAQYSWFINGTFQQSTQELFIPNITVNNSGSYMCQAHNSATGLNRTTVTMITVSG
Kind of assay: cell-based or functional assay.

The target of assay [2] is T2, recombinant human CEACAM6 Fc-tag protein (human, UniProt P40199 35-320, limits assumed).
T2 construct: also called huCEACAM6 (Octet); not shown: Fc tag
T2 sequence (looked up): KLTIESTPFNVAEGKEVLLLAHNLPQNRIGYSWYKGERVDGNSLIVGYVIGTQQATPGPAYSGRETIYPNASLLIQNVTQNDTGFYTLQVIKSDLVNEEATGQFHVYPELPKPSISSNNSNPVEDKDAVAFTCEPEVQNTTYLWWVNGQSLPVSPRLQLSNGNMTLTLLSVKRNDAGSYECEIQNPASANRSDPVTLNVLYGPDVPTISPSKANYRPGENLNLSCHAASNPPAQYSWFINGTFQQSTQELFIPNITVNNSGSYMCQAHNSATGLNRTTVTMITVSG
The assay is described as follows: Octet (BLI), antibody on AHC sensor, antigen in solution. As to the method:
Binding kinetics of recombinant anti-CEACAM5/6 antibodies to CEACAM5 and CEACAM6 were analyzed by Octet. In Octet analysis, recombinant human CEACAM5 Fc-tag protein (#Uniprot P06731) or CEACAM6 Fc-tag protein (Uniprot P40199) was serially diluted with 1×kinetic buffer (Fortebio). Anti-CEACAM5/6 dual-binding antibodies were diluted to 5 μg/mL. Then diluted antibodies, antigen and regeneration buffer (10 mM glycine pH 1.75) were added to 96-well plates (Greiner). Rate constants for association and dissociation were measured using AHC sensor (Fortebio). The sensor surface was regenerated after each binding experiment with regeneration buffer. The traces were processed using ForteBio Data Analysis Software (version 8.0, Pall ForteBio, CA, USA).
Background: In BLI a coated tip is dipped into the sample, and binding shifts an interference pattern.

Assay [3] concerns the target T1, human CEACAM6 on 293T cells …. The assay is described as follows: flow cytometry on 293T-huCEACAM6 cells. Here is the method: (§1) Binding of recombinant anti-CEACAM5/6 dual-binding antibodies against human or cynomolgus CEACAM5 or CEACAM6 stable cells were detected by flow cytometry. […] Anti-CEACAM5/6 dual-binding antibodies were incubated with the stable cell lines. Anti-CEACAM5/6 dual-binding antibodies were serially diluted in staining buffer (PBS containing 2% FBS). 50 μL of diluted antibody solution was added to 50 μL of cell suspension containing 1-2×10⁵ cells and incubated at 4° C. for 1 hour. […] After 1-hour incubation at 4° C., cells were washed twice and run on a flow cytometer. […] The results were shown in FIGS. 8-10 and Tables 6 below.
On the technique in general: A flow cytometer gives signals particle by particle.

Assay [4] concerns the target T3, cynomolgus CEACAM5 on CHO-K1 cells (CHOK1-cyno CEACAM5 cells) (cynomolgus monkey).
T3 construct: whole, on cells; also called CHOK1-cynoCECAM5
The assay is described as follows: flow cytometry on CHOK1-cyno CEACAM5 cells. As to the method: as §1

In a further assay the target is T4, cyno CEACAM5 protein (cynomolgus monkey).
T4 construct: also called cynomolgus CEACAM5
Kind of assay: ELISA, antigen coated on plate. The source says: (§2) Binding of recombinant anti-CEACAM5/6 dual-binding monoclonal antibodies against human and cynomolgus CEACAM5, and human CEACAM6 (Uniprot P40199), human CEACAM 1, 3 (NP_001806.2, Sino Biological 11933-H08H) and 8 (NP_001807.2, Acro Bio CE8-H5224) were detected by ELISA. Anti-CEACAM5/6 dual-antibodies were serially diluted in staining buffer (PBS containing 2% FBS). […] ELISA was used to test the binding between antibody containing supernatant or purified antibodies and the antigen. Briefly, the antigens were coated on a 96-well high binding plate overnight at 4° C. The plate was washed with PBST three times, incubated with blocking buffer (2% Bovine Serum Albumin) for one hour at 37° C., washed with PBST three times and incubated with antibody containing supernatant or purified antibodies at desired dilutions or concentrations for one hour at 37° C. A secondary antibody, anti-human Fc-HRP (Jackson Laboratory, 109-035-097) was used for detection of the targeted antibody. TMB and stopping solution were used for detection of HRP signal. The HRP signal was read on a SPECTRAMAX plate reader.
In general terms: ELISA stands for enzyme-linked immunosorbent assay.

In a further assay the target is T5, human CEACAM3 protein (human, UniProt P40198 35-155).
T5 construct: Bought protein; also called huCEACAM3
T5 sequence (looked up): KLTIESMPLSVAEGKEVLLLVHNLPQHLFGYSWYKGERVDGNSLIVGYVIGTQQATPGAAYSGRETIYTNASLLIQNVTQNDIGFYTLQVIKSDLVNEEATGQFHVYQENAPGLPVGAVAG
The assay is described as follows: ELISA, antigen coated on plate.
Source text: as §2

The next assay addresses T6, human CEACAM8 protein (human, UniProt P31997 35-320).
T6 construct: Bought protein; also called huCEACAM8
T6 sequence (looked up): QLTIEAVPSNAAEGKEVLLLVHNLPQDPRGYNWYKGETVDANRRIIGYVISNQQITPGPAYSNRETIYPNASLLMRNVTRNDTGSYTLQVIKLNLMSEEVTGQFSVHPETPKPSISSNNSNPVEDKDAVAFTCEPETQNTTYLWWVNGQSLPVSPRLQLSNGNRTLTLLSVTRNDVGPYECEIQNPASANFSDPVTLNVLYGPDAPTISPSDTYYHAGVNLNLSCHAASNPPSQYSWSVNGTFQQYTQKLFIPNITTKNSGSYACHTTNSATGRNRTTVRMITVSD
Kind of assay: ELISA, antigen coated on plate.
Source text: as §2

In another assay the target is T7, human CEACAM6 protein (human, UniProt P40199 35-320).
T7 construct: also called huCEACAM6
T7 sequence (looked up): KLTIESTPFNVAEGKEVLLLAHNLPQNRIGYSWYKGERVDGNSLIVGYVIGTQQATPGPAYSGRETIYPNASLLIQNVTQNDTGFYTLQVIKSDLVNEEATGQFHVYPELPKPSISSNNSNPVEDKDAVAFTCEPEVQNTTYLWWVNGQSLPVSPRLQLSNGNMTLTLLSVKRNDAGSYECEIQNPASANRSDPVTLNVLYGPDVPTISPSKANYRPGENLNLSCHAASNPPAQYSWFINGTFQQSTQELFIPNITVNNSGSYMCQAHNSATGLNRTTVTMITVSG
The assay is described as follows: ELISA, antigen coated on plate.
Source text: as §2

For a further assay, the target named is T8, human CEACAM1 protein (human, UniProt P13688 35-428).
T8 construct: also called huCEACAM1
T8 sequence (looked up): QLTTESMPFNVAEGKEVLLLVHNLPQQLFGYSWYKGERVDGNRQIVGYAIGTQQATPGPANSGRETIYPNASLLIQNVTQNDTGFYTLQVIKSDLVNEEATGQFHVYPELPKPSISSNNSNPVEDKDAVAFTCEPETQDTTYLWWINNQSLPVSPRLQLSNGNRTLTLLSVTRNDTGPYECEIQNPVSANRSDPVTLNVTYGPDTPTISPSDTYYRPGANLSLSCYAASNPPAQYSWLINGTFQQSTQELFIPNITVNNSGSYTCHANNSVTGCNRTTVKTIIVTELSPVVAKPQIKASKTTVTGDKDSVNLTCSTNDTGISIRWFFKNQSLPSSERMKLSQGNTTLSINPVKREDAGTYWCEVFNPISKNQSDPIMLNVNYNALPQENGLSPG
The assay is described as follows: ELISA, antigen coated on plate.
Source text: as §2

Assay [5] concerns the target T1, human CEACAM6 on 293T cells …. Kind of assay: flow cytometry on 293T-huCEACAM6 cells, Alexa Fluor 488 anti-human IgG, MFI. As to the method:
as §1

Assay [6] shares this target. Kind of assay: flow cytometry on 293T-huCEACAM6 cells with against without 100 nM soluble CEACAM6.
For another assay, the target named is T9, human CEACAM5 protein (human, UniProt P06731 35-685).
T9 construct: also called huCEACAM5
T9 sequence (looked up): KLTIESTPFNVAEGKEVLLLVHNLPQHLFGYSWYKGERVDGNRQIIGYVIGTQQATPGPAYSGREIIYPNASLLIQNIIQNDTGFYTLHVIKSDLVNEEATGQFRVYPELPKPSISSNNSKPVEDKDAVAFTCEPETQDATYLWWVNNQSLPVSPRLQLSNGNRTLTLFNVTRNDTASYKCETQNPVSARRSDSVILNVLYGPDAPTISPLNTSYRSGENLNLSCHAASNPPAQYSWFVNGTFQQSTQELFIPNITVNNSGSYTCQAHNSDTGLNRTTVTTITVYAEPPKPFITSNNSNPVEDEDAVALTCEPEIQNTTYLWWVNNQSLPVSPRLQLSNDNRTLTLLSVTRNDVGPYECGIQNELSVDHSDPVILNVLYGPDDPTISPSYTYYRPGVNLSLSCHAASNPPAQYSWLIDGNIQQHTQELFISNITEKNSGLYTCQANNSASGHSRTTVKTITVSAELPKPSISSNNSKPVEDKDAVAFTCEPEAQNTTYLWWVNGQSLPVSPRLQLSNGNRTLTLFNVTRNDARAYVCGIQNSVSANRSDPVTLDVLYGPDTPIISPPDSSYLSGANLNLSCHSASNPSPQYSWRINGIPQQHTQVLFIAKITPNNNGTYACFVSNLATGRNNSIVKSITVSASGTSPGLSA
Kind of assay: ELISA, antigen coated on plate.
Source text: as §2

B1: PR303561 (Tusamitamab) (antibody, human IgG1, kappa, V domains shown)
VH: EVQLQESGPGLVKPGGSLSLSCAASGFVFSSYDMSWVRQTPERGLEWVAYISSGGGITYAPSTVKGRFTVSRDNAKNTLYLQMNSLTSEDTAVYYCAAHYFGSSGPFAYWGQGTLVTVSS
VL: DIQMTQSPASLSASVGDRVTITCRASENIFSYLAWYQQKPGKSPKLLVYNTRTLAEGVPSRFSGSGSGTDFSLTISSLQPEDFATYYCQHHYGTPFTFGSGTKLEIKR
notes: also called PR003561; SAR408377
One may read the EC50 as the concentration at which the effect is half-maximal. A higher EC50 goes with a less potent agent. In the case of B1, the “Internalization of pHAb-dye-labelled antibody, MFI (37° C.-4° C.)/DAR” value in assay [1] came to 1260. The binding result (in assay [2]; in [3]; in the assay with human CEACAM3 protein; with human CEACAM8 protein; with human CEACAM6 protein; in the assay with human CEACAM1 protein) was “no binding” each time. Further, the EC50 in assay [4] was determined as 33.4 nM; with cyno CEACAM5 protein it was 0.01 nM.

B2: PR303563 (Tinurilimab) (antibody, human IgG2, kappa, V domains shown)
VH: QVTLRESGPALVKPTQTLTLTCTFSGFSLSTYGIGVGWIRQPPGKALEWLAHIWWNDNKYYSTSLKTRLTISKDTSKNQVVLTMTNMDPVDTATYYCARISLPYFDYWGQGTTLTVSS
VL: DIQLTQSPSFLSASVGDRVTITCKASQNVGTAVAWYQQKPGKAPKLLIYSASNRYTGVPSRFSGSGSGTEFTLTISSLQPEDFATYYCQQYSSYPLTFGGGTKVEIKR
notes: also called BAY-1834942
What is called EC50 (read off the curve) is the concentration that produces a half-maximal response. In the case of B2, the “EC50 (read off the curve)” value in [5] was around 0.6 nM. Moreover, in [6], the “fold change of EC50 at the presence of 100 nM soluble protein” value is 7.3 fold. For the same molecule, the binding result with human CEACAM3 protein, in the assay with human CEACAM8 protein, in the assay with human CEACAM5 protein and in the assay with human CEACAM1 protein was “no binding” in each case. For the same molecule, the half-maximal effective concentration (EC50) with human CEACAM6 protein turned out to be 0.01 nM.
